Experimental data from article PMC3623958, “Structural and Functional Role of INI1 and LEDGF in the HIV-1 Preintegration Complex”.

What was measured:
[1] = target: HIV-1 integrase (full length wild type) (HIV-1)
[2] = target: HIV-1 integrase (full length wild type) (HIV-1); test: cross-linking + other: High-Mass MALDI ToF mass spectrometry; purified IN/LEDGF/INI1-IBD complex (formed by dialysis, affinity chromatography and gel filtration) chemically cross-linked before mass spectrometry; linear mode
[3] = target: T1, HIV-1 integrase (IN);LEDGF/p75;INI1-IBD (HIV-1;human?;human?, UniProt P04585;O75475;Q12824 1148-1435;1-530;174-289, ||); test: fluorescence anisotropy; 5 mM Mg2+; 2 DNA duplexes per complex assumed; details: protein: recombinant;recombinant;recombinant; tags: GST tag on the IN/LEDGF complex cleaved by P3C protease; chain copies: 4;2;2; label: 5'-6FAM on strand 1; blunt
[4] = target: T2, HIV-1 integrase (IN);LEDGF/p75 (HIV-1;human?, UniProt P04585;O75475 1148-1435;1-530, |); test: as above; details: protein: recombinant;recombinant; tags: GST tag on the IN/LEDGF complex cleaved by P3C protease; chain copies: 4;2; label: 5'-6FAM on strand 1; blunt
[5] = target: T1, HIV-1 integrase (IN);LEDGF/p75;INI1-IBD; test: competition (fluorescence anisotropy); excess over N1; 5 mM Mg2+; details: protein: recombinant;recombinant;recombinant; tags: GST tag on the IN/LEDGF complex cleaved by P3C protease; chain copies: 4;2;2; blunt
[6] = target: T2, HIV-1 integrase (IN);LEDGF/p75; test: as above; details: protein: recombinant;recombinant; tags: GST tag on the IN/LEDGF complex cleaved by P3C protease; chain copies: 4;2; blunt

Molecule: Lens Epithelium-Derived Growth Factor LEDGF/p75 (full length wild type) (from UniProt O75475 1-530) (natural protein)
- circular full site integration products counted by cloning in bacteria, IN/LEDGF complex against isolated IN, 0.1 to 12.5 µM in IN monomers [1]: 2 to 10 times

Molecule: HIV-1 integrase (full length wild type) (enzyme)
- stoichiometry N [2]: 2

B1: U5 vDNA 40 bp, 6FAM (dsDNA)
DNA 1: GACTACGGTTCAAGTCAGCGTGTGGAAAATCTCTAGCAGT
DNA 2: ACTGCTAGAGATTTTCCACACGCTGACTTGAACCGTAGTC
- Kd [3]: 35 ± 4 nM
- Kd [4]: 10.6 ± 0.5 nM

B2: non-specific DNA 49 bp, unlabeled competitor (dsDNA)
DNA 1: AGTTAAGTGCTGAATTATGATAGTAATCAATATCTACTCCTAACCTCTT
DNA 2: AAGAGGTTAGGAGTAGATATTGATTACTATCATAATTCAGCACTTAACT
- binding result [5]: no binding
- binding result [6]: no binding
